Results as given in patent US10646600B2, “HER2 polypeptides useful for imaging and monitoring tumors and cancers” (GE HEALTHCARE LIMITED, priority 2013, dated 2020).
Where two headings read alike, the source gives them in different places.

Tests used:
human HER2 = target: T1, human HER2 (Homo sapiens, UniProt P04626); test: Surface Plasmon Resonance, human HER2-ECD-Fc; assay type: binding
T1 construct: Human, rhesus and rat HER2-ECD-Fc (SINO Biological, Beijing, China, Cat. Nr: 10004-H02H, 90020-K02H, and 80079-R02H); Fc (C); purchased SINO Biological 10004-H02H
Description: To characterize the affinity of [^19F]GE-226[SEQ ID NO 1] to HER2 protein, Surface Plasmon Resonance studies were conducted. Human, rhesus and rat HER2-ECD-Fc (SINO Biological, Beijing, China, Cat. Nr: 10004-H02H, 90020-K02H, and 80079-R02H), as well as human HER2-ECD-Fc-6×His (R&D Systems, Minneapolis, Minn., Cat. Nr: 1129-ER) and p95HER2 ECD-Fc-6×His (Syngene, Cambridge, United Kingdom) were diluted with 50 mM sodium acetate pH 4.5 (Biacore (GE Healthcare, Buckinghamshire, UK) coupling buffer) to a final concentration of 10 μg/mL. Antigen coupling to Biacore sensor chip CMS (Cat. Nr: BR-1005-30) was done according to amine coupling protocol from the instrument manual (Syngene). HBS-EP buffer (10 mM HEPES pH 7.4, 150 mM NaCl, 3 mM EDTA and 0.005% surfactant P20; GE Healthcare, Little Chalfont, United Kingdom, Cat. Nr: BR-1006-69) was used as running buffer and as solvent for the substances. The affinity studies were performed using a Biacore T100 (GE Healthcare). [^19F]GE-226 was diluted in HBS-EP buffer to 50 nM, 25 nM, 12.5 nM, 6.25 nM, 3.125 nM, 1.56 nM, 0.78 nM, 0.39 nM, 0.195 nM, 0.097 nM, 0.049 nM and 0 nM. The flow cells of the first chip comprised of blank, human HER2-ECD-Fc-6×His, p95HER2-ECD-Fc-6×His batch I and p95HER2-ECD-Fc-6×His batch II. The flow cells on the second chip contained blank, human HER2-ECD-Fc, rhesus HER2-ECD-Fc and rat HER2 ECD-Fc. The immobilization of the proteins was validated with protein-A (Sigma-Aldrich, St. Louis, Mo., Cat. Nr: P6031) and anti-human IgG antibody (Perkin Elmer, Waltham, Mass., Cat. Nr: NEF803001EA). [^19F]GE-226[SEQ ID NO 1] was pumped in duplicate over cells in randomized order for 60 sec at 50 μL/min flow rate followed by 120 sec of HBS-EP to monitor dissociation. This was followed by regeneration of the chip with 50 mM sodium hydroxide for 30 sec at 30 μL/min flow rate followed by 60 sec run of HBS-EP to stabilize the surface. Kinetic calculations were performed using Langmuir 1:1 binding model and simultaneous calculation of association and dissociation phase.

SKOV-3 cells = test: In vitro uptake assay in SKOV-3 cells (blocking, siRNA, drug treatment, specific activity); assay type: cell-based, human
Description: For siRNA-mediated HER2 knockdown, SKOV-3 cells were transfected with 25 nM scramble control (SCR; Dharmacon, Lafayette, Colo., ON-TARGETplus Non-targeting Pool, Cat. Nr: D-001810-10-05) or HER2-targeting siRNA (Invitrogen ERBB2 Silencer® Select Validated siRNA; Cat. Nr: 4457298) by reverse wet transfection with Lipofectamine RNAiMAX (Invitrogen) according to manufacturer's instructions. 3×10^5 cells were seeded in 12-well plates 48 h prior to uptake experiment. Target knockdown was verified by western blotting on cells that were transfected in parallel.
For all uptake studies in response to drug treatment, 2.5×10^5 SKOV-3 cells were seeded in complete medium 48 h prior to uptake experiments.
For baseline uptake in HER2 positive or negative lineages, 3×10^5 cells were seeded in complete media in 12-well plates (Corning, Tewksbury Mass.) and allowed to recover overnight. Cells were washed twice with serum-free medium and pulsed with 370 KBq in 500 μL serum-free medium for one h. For blocking studies, cells were co-incubated with tracer and 0.5 mg/mL cold unlabeled [^19F]GE-226[SEQ ID NO 1].
Cells were washed with PBS, trypsinized, neutralized with complete medium and centrifuged. The pellet was washed three times with PBS and lysed in 120 μL RIPA buffer (Sigma-Aldrich). The radioactivity of 100 μL lysate was counted on a Packard Cobra II gamma counter (Perkin Elmer). Radioactivity was normalized to applied radioactivity and protein content, which was determined for each sample by BCA assay (Pierce, Rockford, Ill.).

| Kd (human HER2; human HER2, text, read-out: KD) | Off-rate koff (human HER2; Human HER2) | Rmax (human HER2; Human HER2) | On-rate kon (human HER2; Human HER2, Langmuir 1:1 binding model) | Chi-Square χ^2 (human HER2; Human HER2, fit statistic) | U-value (human HER2; Human HER2, fit statistic) | Kd (human HER2; Human HER2, read-out: Affinity KD) | binding to human HER2 (words) (human HER2; listed as GE-226) | binding to human HER2 (words) (human HER2; listed as [^19F]-GE-226) | Substance | tracer uptake in comparison to freshly prepared tracer (SKOV-3 cells; incubation initiated 70 minutes later (specific activity)) | tracer uptake in comparison to freshly prepared tracer (SKOV-3 cells; incubation initiated 140 minutes later (specific activity)) | reduction of [18F]GE-226 uptake by blocking (SKOV-3 cells; co-incubation with 0.5 mg/mL cold [19F]GE-226, 60 minutes) | [18F]GE-226 uptake compared to control cells (100±12%) (SKOV-3 cells; co-incubation with large excess of 19F analogue) |
| --- | --- | --- | --- | --- | --- | --- | --- | --- | --- | --- | --- | --- | --- |
| 0.076 nM |  |  |  |  |  |  |  |  | [^18F]GE-226: HER2-binding 18F-radiolabelled Affibody molecule ZHER2:2891 | 39.5±8.5% | 24.9±3.8% |  |  |
| 0.076 nM | 0.00131 s⁻¹ | 133.5 | 1.73e+07 M⁻¹ s⁻¹ | 0.607 | 3 | 0.0758 nM | binds with high affinity | high affinity binding | [^19F]GE-226: cold unlabeled non-radioactive 19F analogue of the tracer, used for SPR and blocking |  |  | 96.8±2.6% | 3.1±2.6% |
